# Reference: publication PMC3430601, “Characterization of β-N-acetylhexosaminidase (LeHex20A), a member of glycoside hydrolase family 20, from Lentinula edodes (shiitake mushroom)” (AMB Express, 2012)
# B1: LeHex20A (Lentinula edodes) (protein)
# chain: LWPLPTDFSTGTAALTLASDFDIDISAIPNPPQDLLDAISRTKGYLQTDQLEALVVDRGASYNQSLQNASSLVSLVLSYDSGVAGEPTSISEEAIDDIDSRVEGYTLTVPEDGSAATIKANSTLGLFRGLTTFGQLWYDLNNTTYTIEAPIAITDSPVFPYRGFMLDTARNYFPVSDILRTLDAMSWVKMTTFHWHMVDSQSFPLEVPEFPELSLNGAYGPSLVYSTNDVQTIVSYANARGIDVLPEIDTPGHTAIIAQAYPEHVACPGATPWATYANEPPAGQLRFANANTTNFTASLISSVSARFPGKYFSTGGDELNTECYAIDESTQADLNTTGKTLEQALDTFTQTVQSVLEDSGKTPVVWEEMVLDFNLTLSNNTIVMVWISSADAAAVADKGFRLVQAPSDYFYLDCGAGGWVGANPSGNSWCDPFKTWQYAYSFDPVANLTDAQAKLVIGGEHLLWTEQSHASNLDSIVWPRAAASAELFWSGPGGNISEALPRLHDVAFRMTQRGVGAIALQPLWCALRPGVCDLTA
# notes: native, purified from fruiting bodies; secreted mature form, 17-residue signal peptide predicted (ORF 553 aa, mature 536 aa); N-terminus LWPLPTDFSTGTAAL; 79 kDa on SDS-PAGE (58 kDa calculated, glycosylated); GH20
# Tests used:
# purified protein [1] = substrate: CC(=O)N[C@H]1[C@H](Oc2ccc([N+](=O)[O-])cc2)O[C@H](CO)[C@@H](O)[C@@H]1O; assay: purified protein; format: biochemical, Lentinula edodes; conditions: 20 mM sodium acetate pH 4.2, 37 °C, 15 min
# purified protein [2] = substrate: CC(=O)N[C@H]1[C@H](Oc2ccc([N+](=O)[O-])cc2)O[C@H](CO)[C@H](O)[C@@H]1O; assay: purified protein; format: biochemical, Lentinula edodes; conditions: 20 mM sodium acetate pH 4.2, 37 °C, 15 min
protein,measurement,setting,value
B1,Km,purified protein [1],340 ± 10 µM
same,kcat,purified protein [1],335 ± 10 s⁻¹
same,kcat/Km,purified protein [1],983000 M⁻¹ s⁻¹
same,Km,purified protein [2],430 ± 30 µM
same,kcat,purified protein [2],177 ± 8 s⁻¹
same,kcat/Km,purified protein [2],411000 M⁻¹ s⁻¹
